Measurements from FireProtDB (doi:10.1021/bi0512400).
“And” between values parts separate entries of the source, which are not always exact repeats. Identical values can stand only once.

B1: Alpha-lactalbumin, P00712 (parent)
chain: MMSFVSLLLVGILFHATQAEQLTKCEVFQKLKDLKDYGGVSLPEWVCTAFHTSGYDTQAIVQNNDSTEYGLFQINNKIWCKDDQNPHSRNICNISCDKFLDDDLTDDIVCAKKILDKVGINYWLAHKALCSEKLDQWLCEKL

Variants of: B1
Details: Capra hircus, pH 7.5, 25 °C, GdnHCl, CD, Tris 20 mM, Ca2+ 10 mM, structure 1HFY, whole UniProt chain shown

| Variant | ddG of mutation (higher = less stable) | denaturant m value | unfolding free energy | denaturant m value (transition: 3) | unfolding free energy (transition: 3) |
| --- | --- | --- | --- | --- | --- |
| W45F | 2.4 kcal/mol | 2.81 kcal/mol/M | 7.84 kcal/mol | 1.65 kcal/mol/M and 1.16 kcal/mol/M | 4.18 kcal/mol and 3.66 kcal/mol |
| W137F | -0.16 kcal/mol | 3.06 kcal/mol/M | 10.4 kcal/mol |  |  |
| W79F | 1.27 kcal/mol | 2.65 kcal/mol/M | 8.97 kcal/mol | 1.51 kcal/mol/M and 1.14 kcal/mol/M | 4.98 kcal/mol and 3.99 kcal/mol |
| W123F | 2.27 kcal/mol | 2.8 kcal/mol/M | 7.97 kcal/mol |  |  |
